“Also recorded” adds a separate entry of the source. Read-outs that look alike come from different tables or passages of the source. One block for each molecule: values may come before it. Bridges are numbered along the chain shown (N, C = ends). Where no end group is shown, it is not given here.
Columns and labels:
[1] = Aqueous solubility (observed on sample preparation); format: physicochemical; conditions: aqueous buffer solution; observation in words
Source text: For instance, it is well known that substitution of L-Trp to D-Trp increases the population of the native β-turn and of and the analogue half-life in serum. […] For these reasons, in all the CST analogues, L-Trp was replaced by D-Trp in position 7 and Ser11 was replaced by Thr11 to stabilise the β-turn; and either Phe6 or Phe5 were replaced by Msa (analogues 2 and 4; Fig. 1c). In addition to these modifications, terminal residues were acylated as N-octanoyl amides (analogues 3 and 5). The reasoning behind this modification was to increase the hydrophobicity of the analogue and mimic a similar modification to that observed in ghrelin, a neuropeptide produced by endocrine cells in the digestive tract and that shares with CST the ability to interact with the growth hormone secretagogue receptor GHSR-1a[28].
We also characterised the conformational properties of analogues 2, 3 and 4. […] In these cases (Fig. 8a–c), the aromatic residues 5 and 10 align on one side of the molecule, whereas the side chain of residue 6 is located on the other side of the peptide plane. In this conformation, D-Trp7 is close to the pair of aromatic rings 5 and 10, due to the presence of weak NOEs involving the ring protons of D-Trp7 and the methyl protons of Msa5. […]

SSTR2 = target: T1, SSTR2 (Homo sapiens, UniProt P30874); assay: Radio-ligand binding assay, SSTR2
T1 construct: host or cells: CHO-K1
Method: (§1) Graphical and tabular representation of the percentage inhibition of specific binding, as IC50 (nM) binding values for the analogues against the five SSTR1-SSTR5 is represented in Supplementary Fig. 1b and Supplementary Table 1. […] IC50 values were determined by a non-linear, least squares regression analysis using Prism 9 (GraphPad Software, USA), using the Dose-response inhibition (three-parameters) model. […]
(§2) (SSTR1-SSTR5), using a Radio-ligand Binding Assay (Supplementary Figure 1b). Cells were incubated in HEPES buffer pH 7.4 with the new analogues of Cortistatin at 10 different concentrations in a range […]
(§3) specifically bound (performed at Eurofins Panlabs, Inc.). The radioactivity obtained in the absence of SST14 is considered as total binding and that obtained in the presence of 1 µM of SST14 is considered as nonspecific binding. Specific binding was considered as the difference between total and nonspecific.
(§4) Biochemical assay results are presented as the percent inhibition of specific bindin g (% inhib ition) as a […]
(§5) part of each binding assay with the five (SSTR1 -SS T R5 ) . I C50 values were determined by a non-linear, least squares regression analysis using Prism 9 (GraphPad Software, USA), using the Dose -response inhibit ion (t hree-parameters) model.

SSTR3 = target: T2, SSTR3 (Homo sapiens, UniProt P32745); assay: Radio-ligand binding assay, SSTR3
T2 construct: host or cells: CHO-K1
Method: as §1, §2, §3, §4, §5

SSTR1 = target: T3, SSTR1 (Homo sapiens, UniProt P30872); assay: Radio-ligand binding assay, SSTR1
T3 construct: host or cells: CHO-K1
Method: as §1, §2, §3, §4, §5

[2] = target: Somatostatin receptor 1 (SSTR1) (human), P30872; conditions: chains peptide; internal disulfide bond between the two cysteines (cyclic peptide)
[3] = target: Somatostatin receptor 5 (SSTR5) (human), P35346; conditions: chains peptide; internal disulfide bond between the two cysteines (cyclic peptide)
[4] = target: Somatostatin receptor 3 (SSTR3) (human), P32745; assay: competition with 125I-Tyr11 SST14
[5] = target: Somatostatin receptor 4 (SSTR4) (human), P31391; conditions: chains peptide; internal disulfide bond between the two cysteines (cyclic peptide)
[6] = target: Somatostatin receptor 2 (SSTR2) (human), P30874; conditions: chains peptide; internal disulfide bond between the two cysteines (cyclic peptide)
[7] = target: Somatostatin receptor 2 (SSTR2) (human), P30874; conditions: N-octanoyl amide on the N-terminal residue; L-mesityl alanine (Msa) at position 6; D-Trp at position 7; disulfide bridge between the two cysteines
[8] = target: Somatostatin receptor 3 (SSTR3) (human), P32745; conditions: N-octanoyl amide on the N-terminal residue; L-mesityl alanine (Msa) at position 6; D-Trp at position 7; disulfide bridge between the two cysteines
[9] = target: Somatostatin receptor 2 (SSTR2) (human), P30874; assay: competition with 125I-Tyr11 SST14; conditions: D-Trp at position 7, disulfide bridge between the two cysteines
[10] = target: Somatostatin receptor 1 (SSTR1) (human), P30872; assay: competition with 125I-Tyr11 SST14; conditions: D-Trp at position 7, disulfide bridge between the two cysteines
[11] = target: Somatostatin receptor 5 (SSTR5) (human), P35346; assay: competition with 125I-Tyr11 SST14; conditions: D-Trp at position 7, disulfide bridge between the two cysteines
[12] = target: Somatostatin receptor 1 (SSTR1) (human), P30872; conditions: N-octanoyl amide on the N-terminal residue; L-mesityl alanine (Msa) at position 6; D-Trp at position 7; disulfide bridge between the two cysteines
[13] = target: Somatostatin receptor 5 (SSTR5) (human), P35346; conditions: N-octanoyl amide on the N-terminal residue; L-mesityl alanine (Msa) at position 6; D-Trp at position 7; disulfide bridge between the two cysteines
[14] = target: Somatostatin receptor 1 (SSTR1) (human), P30872; conditions: octanoyl moiety at the N-terminus (N-octanoyl amide); L-mesityl alanine (Msa) at position 5; D-Trp at position 7; disulfide bridge between the two cysteines
[15] = target: Somatostatin receptor 3 (SSTR3) (human), P32745; conditions: octanoyl moiety at the N-terminus (N-octanoyl amide); L-mesityl alanine (Msa) at position 5; D-Trp at position 7; disulfide bridge between the two cysteines
[16] = target: Somatostatin receptor 5 (SSTR5) (human), P35346; conditions: octanoyl moiety at the N-terminus (N-octanoyl amide); L-mesityl alanine (Msa) at position 5; D-Trp at position 7; disulfide bridge between the two cysteines
[17] = target: Somatostatin receptor 2 (SSTR2) (human), P30874; conditions: octanoyl moiety at the N-terminus (N-octanoyl amide); L-mesityl alanine (Msa) at position 5; D-Trp at position 7; disulfide bridge between the two cysteines
[18] = target: Somatostatin receptor 1 (SSTR1) (human), P30872; conditions: L-mesityl alanine (2,4,6-trimethylphenylalanine, Msa) in place of Phe6; D-Trp at position 7; disulfide bridge between the two cysteines
[19] = target: Somatostatin receptor 2 (SSTR2) (human), P30874; conditions: L-mesityl alanine (2,4,6-trimethylphenylalanine, Msa) in place of Phe6; D-Trp at position 7; disulfide bridge between the two cysteines
[20] = target: Somatostatin receptor 5 (SSTR5) (human), P35346; conditions: L-mesityl alanine (2,4,6-trimethylphenylalanine, Msa) in place of Phe6; D-Trp at position 7; disulfide bridge between the two cysteines
[21] = target: Somatostatin receptor 3 (SSTR3) (human), P32745; conditions: L-mesityl alanine (2,4,6-trimethylphenylalanine, Msa) in place of Phe6; D-Trp at position 7; disulfide bridge between the two cysteines
[22] = target: Somatostatin receptor 1 (SSTR1) (human), P30872; conditions: L-mesityl alanine (Msa) in place of Phe5; D-Trp at position 7; disulfide bridge between the two cysteines
[23] = target: Somatostatin receptor 2 (SSTR2) (human), P30874; conditions: L-mesityl alanine (Msa) in place of Phe5; D-Trp at position 7; disulfide bridge between the two cysteines
[24] = target: Somatostatin receptor 5 (SSTR5) (human), P35346; conditions: L-mesityl alanine (Msa) in place of Phe5; D-Trp at position 7; disulfide bridge between the two cysteines
[25] = target: Somatostatin receptor 3 (SSTR3) (human), P32745; conditions: L-mesityl alanine (Msa) in place of Phe5; D-Trp at position 7; disulfide bridge between the two cysteines
[26] = N-octanoyl amide on the N-terminal residue, L-mesityl alanine (Msa) at position 6
[27] = octanoyl moiety at the N-terminus (N-octanoyl amide), L-mesityl alanine (Msa) at position 5
[28] = L-mesityl alanine (2,4,6-trimethylphenylalanine, Msa) in place of Phe6
[29] = L-mesityl alanine (Msa) in place of Phe5

Sequence of Somatostatin receptor 1 (SSTR1) (human), P30872 (P30872 whole entry): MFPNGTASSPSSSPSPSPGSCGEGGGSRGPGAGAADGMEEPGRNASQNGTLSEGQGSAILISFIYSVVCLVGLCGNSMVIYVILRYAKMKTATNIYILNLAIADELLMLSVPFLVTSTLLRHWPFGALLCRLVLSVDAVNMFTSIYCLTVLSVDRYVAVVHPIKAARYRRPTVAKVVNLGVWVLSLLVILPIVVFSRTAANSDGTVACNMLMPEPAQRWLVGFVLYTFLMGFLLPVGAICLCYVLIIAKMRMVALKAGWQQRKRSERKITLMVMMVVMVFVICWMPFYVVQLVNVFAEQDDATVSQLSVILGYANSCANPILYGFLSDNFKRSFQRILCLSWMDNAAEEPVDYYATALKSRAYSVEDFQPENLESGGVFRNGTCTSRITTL
Sequence of Somatostatin receptor 2 (SSTR2) (human), P30874 (P30874 whole entry): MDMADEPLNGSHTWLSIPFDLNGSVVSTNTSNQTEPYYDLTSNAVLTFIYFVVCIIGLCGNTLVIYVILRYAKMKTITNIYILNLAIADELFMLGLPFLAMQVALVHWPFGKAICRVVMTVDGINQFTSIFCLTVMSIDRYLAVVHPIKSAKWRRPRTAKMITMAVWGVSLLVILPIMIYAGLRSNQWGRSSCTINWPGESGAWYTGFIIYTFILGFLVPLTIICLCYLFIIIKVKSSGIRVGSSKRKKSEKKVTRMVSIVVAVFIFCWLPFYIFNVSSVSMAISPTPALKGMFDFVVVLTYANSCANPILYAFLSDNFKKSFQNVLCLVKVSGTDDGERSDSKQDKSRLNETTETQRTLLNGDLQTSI
Sequence of Somatostatin receptor 5 (SSTR5) (human), P35346 (P35346 whole entry): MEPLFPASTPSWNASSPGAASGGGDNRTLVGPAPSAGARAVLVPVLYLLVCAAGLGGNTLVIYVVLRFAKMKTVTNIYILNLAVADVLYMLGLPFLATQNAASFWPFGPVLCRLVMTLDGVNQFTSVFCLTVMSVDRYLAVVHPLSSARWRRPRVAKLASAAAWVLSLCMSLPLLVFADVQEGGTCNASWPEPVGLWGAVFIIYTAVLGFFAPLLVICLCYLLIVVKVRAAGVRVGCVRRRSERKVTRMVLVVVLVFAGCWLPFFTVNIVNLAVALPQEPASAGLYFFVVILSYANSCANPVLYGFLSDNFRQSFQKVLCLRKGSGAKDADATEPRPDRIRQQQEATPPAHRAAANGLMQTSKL
Sequence of Somatostatin receptor 3 (SSTR3) (human), P32745 (P32745 whole entry): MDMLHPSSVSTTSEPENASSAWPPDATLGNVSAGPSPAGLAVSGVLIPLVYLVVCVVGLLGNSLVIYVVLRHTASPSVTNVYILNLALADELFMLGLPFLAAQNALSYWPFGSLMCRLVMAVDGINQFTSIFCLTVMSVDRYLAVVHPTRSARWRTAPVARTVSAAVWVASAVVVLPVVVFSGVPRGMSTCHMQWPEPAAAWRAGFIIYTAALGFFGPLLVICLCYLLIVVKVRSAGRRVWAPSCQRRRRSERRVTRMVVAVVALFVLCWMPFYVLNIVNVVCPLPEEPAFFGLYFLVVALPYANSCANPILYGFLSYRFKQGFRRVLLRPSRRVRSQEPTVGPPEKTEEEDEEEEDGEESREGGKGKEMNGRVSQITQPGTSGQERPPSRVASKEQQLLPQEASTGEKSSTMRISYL
T1 sequence (P30874 whole entry): as the sequence (P30874 whole entry) above
Sequence of Somatostatin receptor 4 (SSTR4) (human), P31391 (P31391 whole entry): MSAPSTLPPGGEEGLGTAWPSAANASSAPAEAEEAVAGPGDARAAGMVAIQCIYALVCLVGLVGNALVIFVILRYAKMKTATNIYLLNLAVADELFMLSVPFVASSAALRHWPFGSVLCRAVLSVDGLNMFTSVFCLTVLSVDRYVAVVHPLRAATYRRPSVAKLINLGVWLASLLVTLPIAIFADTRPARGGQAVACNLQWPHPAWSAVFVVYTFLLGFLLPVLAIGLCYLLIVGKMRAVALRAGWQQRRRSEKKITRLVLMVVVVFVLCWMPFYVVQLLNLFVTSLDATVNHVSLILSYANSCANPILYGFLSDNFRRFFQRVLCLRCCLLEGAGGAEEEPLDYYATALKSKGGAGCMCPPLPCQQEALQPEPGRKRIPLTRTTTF
T3 sequence (P30872 whole entry): as the sequence (P30872 whole entry) above
T2 sequence (P32745 whole entry): as the sequence (P32745 whole entry) above

Molecule: CCCCCCCC(=O)N1CCC[C@H]1C(=O)N[C@H]1CSSC[C@@H](C(=O)O)NC(=O)[C@H](CO)NC(=O)[C@H]([C@@H](C)O)NC(=O)[C@H](Cc2ccccc2)NC(=O)[C@H]([C@@H](C)O)NC(=O)[C@H](CCCCN)NC(=O)[C@@H](Cc2c[nH]c3ccccc23)NC(=O)[C@H](Cc2ccccc2)NC(=O)[C@H](Cc2c(C)cc(C)cc2C)NC(=O)[C@H](CC(N)=O)NC(=O)[C@H](CCCCN)NC1=O [analogue 6]
aqueous solubility [1]: reduced its aqueous solubility; also recorded: significant impact on the solubility of the sample

Molecule: Cc1cc(C)c(C[C@@H]2NC(=O)[C@H](Cc3ccccc3)NC(=O)[C@H](CC(N)=O)NC(=O)[C@H](CCCCN)NC(=O)[C@@H](NC(=O)[C@@H]3CCCN3)CSSC[C@@H](C(=O)N[C@@H](CCCCN)C(=O)O)NC(=O)[C@H](CO)NC(=O)[C@H]([C@@H](C)O)NC(=O)[C@H](Cc3ccccc3)NC(=O)[C@H]([C@@H](C)O)NC(=O)[C@H](CCCCN)NC(=O)[C@@H](Cc3c[nH]c4ccccc34)NC2=O)c(C)c1 [A2]
IC50 (SSTR2): 0.42 nM | IC50 (SSTR3): 16 nM | IC50 (SSTR1): 14.1 nM

Molecule: CCCCCCCC(=O)N1CCC[C@H]1C(=O)N[C@H]1CSSC[C@@H](C(=O)N[C@@H](CCCCN)C(=O)O)NC(=O)[C@H](CO)NC(=O)[C@H]([C@@H](C)O)NC(=O)[C@H](Cc2ccccc2)NC(=O)[C@H]([C@@H](C)O)NC(=O)[C@H](CCCCN)NC(=O)[C@@H](Cc2c[nH]c3ccccc23)NC(=O)[C@H](Cc2c(C)cc(C)cc2C)NC(=O)[C@H](Cc2ccccc2)NC(=O)[C@H](CC(N)=O)NC(=O)[C@H](CCCCN)NC1=O [A3]
IC50 (SSTR2): 2.8 nM

Molecule: PCKNFFWKTFTSCK [Cortistatin analogue 3]
IC50 [7]: 2.8 nM | IC50 [8]: 100 nM | IC50 [9, 26]: 2.8 nM | IC50 ([4]; N-octanoyl amide on the N-terminal residue, L-mesityl alanine (Msa) at position 6, D-Trp at position 7, disulfide bridge between the two cysteines): 100 nM | IC50 [10, 26]: > 300 nM | IC50 [11, 26]: > 300 nM | IC50 [12]: > 300 nM | IC50 [13]: > 300 nM

Molecule: PCKNFFWKTFTSCK [Cortistatin analogue 2]
IC50 [18]: 14.1 nM | IC50 [19]: 0.42 nM | IC50 [9, 28]: 0.42 nM | IC50 ([4]; L-mesityl alanine (2,4,6-trimethylphenylalanine, Msa) in place of Phe6, D-Trp at position 7, disulfide bridge between the two cysteines): 16 nM | IC50 [10, 28]: 14.1 nM | IC50 [11, 28]: 33 nM | IC50 [20]: 33 nM | IC50 [21]: 16 nM

Molecule: PCKNFFWKTFTSCK [Cortistatin analogue 4]
IC50 [22]: 14.7 nM | IC50 [23]: 9.8 nM | IC50 [9, 29]: 9.8 nM | IC50 ([4]; L-mesityl alanine (Msa) in place of Phe5, D-Trp at position 7, disulfide bridge between the two cysteines): 1.8 nM | IC50 [10, 29]: 14.7 nM | IC50 [11, 29]: 4 nM | IC50 [24]: 4 nM | IC50 [25]: 1.8 nM

Next, values leading:

cleaved bond: Cys13-L-Lys14, major
Molecule: PCKNFFWKTFSSCK

IC50 [2]: 1.7 nM | IC50 [3]: 0.3 nM | IC50 ([4]; chains peptide, internal disulfide bond between the two cysteines (cyclic peptide)): 0.3 nM | IC50 [5]: 0.2 nM | IC50 [6]: 0.09 nM
Molecule: PCKNFFWKTFSSCK (disulfide 2-13 (inferred)) [Cortistatin-14 (r,mCST-14), Q62949 99-112]

IC50 [14]: 47.3 nM | IC50 [15]: 5.1 nM | IC50 [9, 27]: 35 nM | IC50 ([4]; octanoyl moiety at the N-terminus (N-octanoyl amide), L-mesityl alanine (Msa) at position 5, D-Trp at position 7, disulfide bridge between the two cysteines): 5.1 nM | IC50 [10, 27]: 47.3 nM | IC50 [11, 27]: 1.12 nM | IC50 [16]: 1.12 nM | IC50 [17]: 35 nM
Molecule: PCKNFFWKTFTSCK [Cortistatin analogue 5]
